Laboratory results reported in article PMC6624373, “Lamin A molecular compression and sliding as mechanisms behind nucleoskeleton elasticity” (Nature Communications, 2019).
Positions count from the first letter of the chain named.

Biological target: the molecule itself
Test: rotary metal shadowing EM; in vitro assembly assay: after dialysis into 25 mM MES, 150 mM NaCl, 1 mM DTT, 1 mM EGTA pH 6.5, 30% glycerol; dimers scored as singular or incorporated into head-to-tail oligomers

B1: lamin A R25G (natural protein, human, UniProt P02545 1-646, looked up)
chain: METPSQRRATRSGAQASSTPLSPTGITRLQEKEDLQELNDRLAVYIDRVRSLETENAGLRLRITESEEVVSREVSGIKAAYEAELGDARKTLDSVAKERARLQLELSKVREEFKELKARNTKKEGDLIAAQARLKDLEALLNSKEAALSTALSEKRTLEGELHDLRGQVAKLEAALGEAKKQLQDEMLRRVDAENRLQTMKEELDFQKNIYSEELRETKRRHETRLVEIDNGKQREFESRLADALQELRAQHEDQVEQYKKELEKTYSAKLDNARQSAERNSNLVGAAHEELQQSRIRIDSLSAQLSQLQKQLAAKEAKLRDLEDSLARERDTSRRLLAEKEREMAEMRARMQQQLDEYQELLDIKLALDMEIHAYRKLLEGEEERLRLSPSPTSQRSRGRASSHSSQTQGGGSVTKKRKLESTESRSSFSQHARTSGRVAVEEVDEEGKFVRLRNKSNEDQSMGNWQIKRQNGDDPLLTYRFPPKFTLKAGQVVTIWAAGAGATHSPPTDLVWKAQNTWGCGNSLRTALINSTGEEVAMRKLVRSVTVVEDDEDEDGDDLLHHHHGSHCSSSGDPAEYNLRSRTVLCGTCGQPADKASASGSGAQVGGPISSGSSASSVTVTRSYRSVGGSGGGSFGDNLVTRSY
notes: lamin A, human; pre-lamin A without its last 18 amino acids, as m1; mutation associated with EDMD/LGMD1B; source: E. coli (pET28b); purification of the mutants not separately stated
  stoichiometry N: 2

B2: lamin A R388C (natural protein, human, UniProt P02545 1-646, looked up)
chain: B1 chain with G25R, R388C
notes: lamin A, human; pre-lamin A without its last 18 amino acids, as m1; mutation associated with CMD; source: E. coli (pET28b); purification of the mutants not separately stated
  stoichiometry N: 2

B3: lamin A R388E (natural protein, human, UniProt P02545 1-646, looked up)
chain: B1 chain with G25R, R388E
notes: lamin A, human; pre-lamin A without its last 18 amino acids, as m1; de novo mutant; source: E. coli (pET28b); purification of the mutants not separately stated
  stoichiometry N: 2

B4: lamin A E82K (natural protein, human, UniProt P02545 1-646, looked up)
chain: B1 chain with G25R, E82K
notes: lamin A, human; pre-lamin A without its last 18 amino acids, as m1; mutation associated with DCM-CD; source: E. coli (pET28b); purification of the mutants not separately stated
  stoichiometry N: 2

B5: lamin A R401E (natural protein, human, UniProt P02545 1-646, looked up)
chain: B1 chain with G25R, R401E
notes: as for B3
  stoichiometry N: 2

B6: lamin A E65G (natural protein, human, UniProt P02545 1-646, looked up)
chain: B1 chain with G25R, E65G
notes: as for B1
  stoichiometry N: 2

B7: lamin A E33G (natural protein, human, UniProt P02545 1-646, looked up)
chain: B1 chain with G25R, E33G
notes: as for B1
  stoichiometry N: 2

B8: lamin A R401C (natural protein, human, UniProt P02545 1-646, looked up)
chain: B1 chain with G25R, R401C
notes: lamin A, human; pre-lamin A without its last 18 amino acids, as m1; mutation associated with EDMD; source: E. coli (pET28b); purification of the mutants not separately stated
  stoichiometry N: 2
